Assay results taken from article PMC10438466.

Columns and labels:
[1] = HA IP, anti-phospho-Ser/Thr WB; details: glycan lost; control: FOXA1WT, untreated
[2] = cycloheximide chase, WB, MCF-7 FOXA1 KO; details: glycan lost; control: FOXA1WT
[3] = HA IP, anti-ubiquitin WB; details: control: untreated HA-FOXA1WT cells
[4] = WB of HA-FOXA1 protein level; details: control: untreated HA-FOXA1WT cells

B1: FOXA1: FOXA13A (protein)
parent chain: MLGTVKMEGHETSDWNSYYADTQEAYSSVPVSNMNSGLGSMNSMNTYMTMNTMTTSGNMTPASFNMSYANPGLGAGLSPGAVAGMPGGSAGAMNSMTAAGVTAMGTALSPSGMGAMGAQQAASMNGLGPYAAAMNPCMSPMAYAPSNLGRSRAGGGGDAKTFKRSYPHAKPPYSYISLITMAIQQAPSKMLTLSEIYQWIMDLFPYYRQNQQRWQNSIRHSLSFNDCFVKVARSPDKPGKGSYWTLHPDSGNMFENGCYLRRQKRFKCEKQPGAGGGGGSGSGGSGAKGGPESRKDPSGASNPSADSPLHRGVHGKTGQLEGAPAPGPAASPQTLDHSGATATGGASELKTPASSTAPPISSGPGALASVPASHPAHGLAPHESQLHLKGDPHYSFNHPFSINNLMSSSEQQHKLDFKAYEQALQYSPYGSTLPASLPLGSASVTTRSPIEPSALEPAYYQGVYSRPVLNTS
For B1, the “other: serine/threonine phosphorylation” value [1] was “decreases” and the degradation_or_half_life [2] was “increases”.

B2: FOXA1: TMG (protein)
parent chain: MLGTVKMEGHETSDWNSYYADTQEAYSSVPVSNMNSGLGSMNSMNTYMTMNTMTTSGNMTPASFNMSYANPGLGAGLSPGAVAGMPGGSAGAMNSMTAAGVTAMGTALSPSGMGAMGAQQAASMNGLGPYAAAMNPCMSPMAYAPSNLGRSRAGGGGDAKTFKRSYPHAKPPYSYISLITMAIQQAPSKMLTLSEIYQWIMDLFPYYRQNQQRWQNSIRHSLSFNDCFVKVARSPDKPGKGSYWTLHPDSGNMFENGCYLRRQKRFKCEKQPGAGGGGGSGSGGSGAKGGPESRKDPSGASNPSADSPLHRGVHGKTGQLEGAPAPGPAASPQTLDHSGATATGGASELKTPASSTAPPISSGPGALASVPASHPAHGLAPHESQLHLKGDPHYSFNHPFSINNLMSSSEQQHKLDFKAYEQALQYSPYGSTLPASLPLGSASVTTRSPIEPSALEPAYYQGVYSRPVLNTS
In the case of B2, the “other: ubiquitination” value ([3]; glycan gained) is reported as “increases” and the expression_or_secretion ([4]; glycan gained) is reported as “decreases”.

B3: FOXA1: OSMI-4 (protein)
parent chain: MLGTVKMEGHETSDWNSYYADTQEAYSSVPVSNMNSGLGSMNSMNTYMTMNTMTTSGNMTPASFNMSYANPGLGAGLSPGAVAGMPGGSAGAMNSMTAAGVTAMGTALSPSGMGAMGAQQAASMNGLGPYAAAMNPCMSPMAYAPSNLGRSRAGGGGDAKTFKRSYPHAKPPYSYISLITMAIQQAPSKMLTLSEIYQWIMDLFPYYRQNQQRWQNSIRHSLSFNDCFVKVARSPDKPGKGSYWTLHPDSGNMFENGCYLRRQKRFKCEKQPGAGGGGGSGSGGSGAKGGPESRKDPSGASNPSADSPLHRGVHGKTGQLEGAPAPGPAASPQTLDHSGATATGGASELKTPASSTAPPISSGPGALASVPASHPAHGLAPHESQLHLKGDPHYSFNHPFSINNLMSSSEQQHKLDFKAYEQALQYSPYGSTLPASLPLGSASVTTRSPIEPSALEPAYYQGVYSRPVLNTS
For B3, the “other: ubiquitination” value ([3]; glycan lost) was “decreases”, the expression_or_secretion ([4]; glycan lost) was “increases” and the “other: serine/threonine phosphorylation” value [1] was “decreases”.
